Results on one protein are retold here after paper doi:10.1101/2025.02.14.638281 (bioRxiv, 2025).

This series concerns the molecule itself. Put plainly: SEC. On the technique in general: In gel filtration, larger molecules generally elute earlier.

Values joined by “and” are separate entries in the source; they are usually repeats but may differ in a detail not shown here. Identical values can stand only once.

B1: Synechocystis sp. PCC 6803 fructose-1,6-bisphosphatase (FBPase; slr0952) (enzyme, UniProt P74324 1-347, looked up)
chain: MTVSEIHIPNSLLDRDCTTLSRHVLQQLNSFGADAQDLSAIMNRIALAGKLIARRLSRAGLMADVLGFTGETNVQGESVKKMDVFANDVFISVFKQSGLVCRLASEEMEKPYYIPENCPIGRYTLLYDPIDGSSNVDINLNVGSIFAIRQQEGDDLDGSASDLLANGDKQIAAGYILYGPSTILVYSLGSGVHSFILDPSLGEFILAQENIRIPNHGPIYSTNEGNFWQWDEALRDYTRYVHRHEGYTARYSGALVGDIHRILMQGGVFLYPGTEKNPDGKLRLLYETAPLAFLVEQAGGRASDGQKRLLDLIPSKLHQRTPAIIGSAEDVKLVESFISDHKQRQGN
Regarding B1, the “stoichiometry N” value is 12 and 4.

Broadly, the stoichiometry N is a count of units in the complex or per binding partner.
